Reference: PMC12167799, “The role of human Shu complex in ATP-dependent regulation of RAD51 filaments during homologous recombination–associated DNA damage response” (The Journal of Biological Chemistry, 2025)

Biological target: human RAD51 (human) (UniProt Q06609)
Sequence (Q06609 whole entry): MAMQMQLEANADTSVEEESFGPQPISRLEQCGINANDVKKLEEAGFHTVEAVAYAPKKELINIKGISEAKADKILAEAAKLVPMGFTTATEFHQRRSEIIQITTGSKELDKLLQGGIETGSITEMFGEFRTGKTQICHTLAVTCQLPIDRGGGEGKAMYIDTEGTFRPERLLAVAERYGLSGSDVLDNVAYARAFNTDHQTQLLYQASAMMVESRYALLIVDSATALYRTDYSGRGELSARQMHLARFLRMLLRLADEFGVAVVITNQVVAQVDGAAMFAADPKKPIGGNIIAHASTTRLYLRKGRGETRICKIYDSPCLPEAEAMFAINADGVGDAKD

fluorescence intensity of 5′-6-FAM-labeled RAD51-ssDNA filaments (1 μM RAD51, 15 nM poly-dT39, 2 mM ATP) after addition of 50 nM hSWS1-SWSAP1, 10-s intervals over 60 s: 40%
Substance: human Shu complex hSWS1-SWSAP1, wildtype (from UniProt Q19AV6 1-140; Q6NVH7 1-250)
